In patent US20230340137A1, “METHODS, THERAPIES AND USES FOR TREATING CANCER” (PFIZER INC., priority 2020, published 2023):

Key:
Test in all cases: BCMAxCD3 mediated cell killing with human T cells, with or without GSI (luciferase viability)
Format in all cases: cell-based
Details in all cases: with or without 1 μM GSI, 60 hours
Molp8-luc cells = tested on: Molp8-luc cells
Procedure: (§1) CD3^+ T cells from PBMCs (Stem Cell Technologies) were negatively selected using EasySep Human T cell enrichment kit (Stem Cell Technologies). Multiple myeloma cells expressing luciferase (MM.1S-luc, OPM2-luc, H929-luc, Molp8-luc, RPMI8226-luc) were treated with 1 μM GSI […]. After 24 hours, cells were seeded with 50,000 CD3^+ pan T cells in a clear 96-well V-bottom plate. Cells were further treated with a range of BCMAxCD3 bispecific antibody concentrations with or without 1 μM GSI. 60 hours after treatment, luciferase activity in treated cells was analyzed using NeoLite reagent kit (Perkin Elmer) and acquired on VictorX multimode plate reader (Perkin Elmer). Cell viability was calculated by dividing luciferase activity of treated cells over luciferase activity of untreated control (no BCMAxCD3 bispecific antibody added).

MM.1S-luc cells = tested on: MM.1S-luc cells
Procedure: as §1

OPM2-luc cells = tested on: OPM2-luc cells
Procedure: as §1

RPMI8226-luc cells = tested on: RPMI8226-luc cells
Procedure: as §1

With “PF-06863135: heterodimeric humanized full-length bispecific antibody, one BCMA binding arm and one CD3 binding arm, modified human IgG2Δa Fc” the Molp8 cell viability (Molp8-luc cells; BCMAxCD3 0.00001 nM) was 64 ± 11.6 % control, the Molp8 cell viability (Molp8-luc cells; BCMAxCD3 0.00005 nM) was 59.1 ± 4.6 % control and the Molp8 cell viability (Molp8-luc cells; BCMAxCD3 0.00026 nM) was 58.5 ± 0.6 % control. For the same substance, the Molp8 cell viability (Molp8-luc cells; BCMAxCD3 0.00128 nM) was 66.7 ± 0.3 % control, the Molp8 cell viability (Molp8-luc cells; BCMAxCD3 0.0064 nM) was 55.2 ± 1.3 % control and the Molp8 cell viability (Molp8-luc cells; BCMAxCD3 0.032 nM) was 66.1 ± 4.9 % control. It also gave a Molp8 cell viability (Molp8-luc cells; BCMAxCD3 0.16 nM) of 8 ± 2 % control, a Molp8 cell viability (Molp8-luc cells; BCMAxCD3 0.8 nM) of 6.1 ± 0.7 % control and a Molp8 cell viability (Molp8-luc cells; BCMAxCD3 4 nM) of 5.2 ± 0.3 % control. The MM.1S cell viability (MM.1S-luc cells; BCMAxCD3 0.00001 nM) was 80.6 ± 3.9 % control, the MM.1S cell viability (MM.1S-luc cells; BCMAxCD3 0.00005 nM) was 79.8 ± 2.9 % control and the MM.1S cell viability (MM.1S-luc cells; BCMAxCD3 0.00026 nM) was 78 ± 0.9 % control. It also gave an MM.1S cell viability (MM.1S-luc cells; BCMAxCD3 0.00128 nM) of 87.7 ± 4.4 % control, an MM.1S cell viability (MM.1S-luc cells; BCMAxCD3 0.0064 nM) of 108 ± 4.5 % control and an MM.1S cell viability (MM.1S-luc cells; BCMAxCD3 0.032 nM) of 2.5 ± 0.3 % control. The MM.1S cell viability (MM.1S-luc cells; BCMAxCD3 0.16 nM) was 1.7 ± 0.8 % control, the MM.1S cell viability (MM.1S-luc cells; BCMAxCD3 0.8 nM) was 2.4 ± 0.5 % control and the MM.1S cell viability (MM.1S-luc cells; BCMAxCD3 4 nM) was 1.3 ± 0.8 % control. It also gave an OPM2 cell viability (OPM2-luc cells; BCMA × CD3 0.00064 nM) of 83.8 ± 3.4 % control, an OPM2 cell viability (OPM2-luc cells; BCMA × CD3 0.0032 nM) of 84.3 ± 3.1 % control and an OPM2 cell viability (OPM2-luc cells; BCMA × CD3 0.016 nM) of 68.4 ± 2.4 % control. The OPM2 cell viability (OPM2-luc cells; BCMA × CD3 0.08 nM) was 43.6 ± 6.4 % control, the OPM2 cell viability (OPM2-luc cells; BCMA × CD3 0.4 nM) was 3.1 ± 0.8 % control and the OPM2 cell viability (OPM2-luc cells; BCMA × CD3 2 nM) was 2.8 ± 0.8 % control. For the same substance, the OPM2 cell viability (OPM2-luc cells; BCMA × CD3 10 nM) was 2 ± 0.2 % control, the OPM2 cell viability (OPM2-luc cells; BCMA × CD3 50 nM) was 3.3 ± 0.3 % control and the RPMI8226 cell viability (RPMI8226-luc cells; BCMA × CD3 0.00064 nM) was 113.2 ± 10.6 % control. It also gave an RPMI8226 cell viability (RPMI8226-luc cells; BCMA × CD3 0.0032 nM) of 130.5 ± 19.5 % control, an RPMI8226 cell viability (RPMI8226-luc cells; BCMA × CD3 0.016 nM) of 113.4 ± 1.3 % control and an RPMI8226 cell viability (RPMI8226-luc cells; BCMA × CD3 0.08 nM) of 54.2 ± 16.9 % control. The RPMI8226 cell viability (RPMI8226-luc cells; BCMA × CD3 0.4 nM) was 28.7 ± 13.6 % control, the RPMI8226 cell viability (RPMI8226-luc cells; BCMA × CD3 2 nM) was 25.7 ± 5.5 % control and the RPMI8226 cell viability (RPMI8226-luc cells; BCMA × CD3 10 nM) was 19.9 ± 1.1 % control. For the same substance, the RPMI8226 cell viability (RPMI8226-luc cells; BCMA × CD3 50 nM) was 19.4 ± 5^ % control.
